Results published in patent publication US20120189666A1, “PHARMACEUTICAL FORMULATIONS CONTAINING MICROPARTICLES OR NANOPARTICLES OF A DELIVERY AGENT” (priority 2004, published 2012).
Values joined by “and” are separate entries in the source; they are usually repeats but may differ in a detail not shown here. Equal entries are not always repeated. Where two headings read alike, the source gives them in different places.

How the values were obtained:
[1] = Insulin from subcutaneous (SC) administration; conditions: insulin dose 0.05 mg/kg
Excerpt: (§1) This value was assumed to be constant in the estimates of absolute bioavailability.
(§2) The portal bioavailability provides an estimate of drug absorption from oral delivery. […] This value is used to estimate bioavailability relative to subcutaneous.

[2] = Excerpt: as §1, §2
[3] = Stability of insulin in simulated intestinal fluid, HPLC
Description: The SIF solutions were prepared with and without pancreatic enzyme. SIF pH 7.5 was prepared as per the USP NF 26 guidelines. SIF was prepared by addition of 6.8 g monobasic potassium phosphate and 10 g of pancreatin into a suitable vessel, and deionized water was added to reach a total volume of one liter. If necessary, the pH was adjusted to 7.5 by addition of 0.2 N sodium hydroxide. A second SIF solution omitting the pancreatin, an intestinal enzyme, was also prepared.
Four 50 ml samples of SIF (two with pancreatin and two without) were placed into a jacketed vessel connected to a circulating water bath set at 37° C. The solutions were stirred with magnetic stir bars for ten minutes to allow the solutions to reach 37° C. and reach thermal equilibrium.

[4] = for AUC0->∞ / C0: individual animals
Excerpt: as §1

[5] = Estimates of bioavailability (absolute, portal, relative to subcutaneous); conditions: rat model
Excerpt: as §1, §2

[6] = Insulin and 4-CNAB stability in simulated gastric fluid, HPLC; conditions: for Insulin % of theoretical: SGF
Description: The SGF was prepared with and without pepsin, a gastric enzyme. SGF pH 1.2 was prepared as per the USP NF 26 guidelines. 2 g sodium chloride and 3.2 g of pepsin were weighed and added to a suitable container, and deionized water was added to reach one liter in volume. If necessary, the pH was adjusted to 1.2 by addition of concentrated HCl or NaOH. A second SGF solution omitting the pepsin was also prepared.
Four 50 ml samples of SGF (two with pepsin and two without) were placed into a jacketed vessel connected to a circulating water bath set at 37° C. The solutions were stirred with magnetic stir bars for ten minutes to allow the solutions to reach 37° C. and reach thermal equilibrium.
The term “% of theoretical” as used herein, means the percent of the concentration (mg/mL) of withdrawn solution at the time-point the sample was taken as compared to the theoretical concentration (mg/mL) of the measuring component for experiment. The standard of deviation for the HPLC analysis is ±5%.

**Q.** Which Tmax ([1]; per study, 0.05 mg/kg) does the source give for Insulin: Recombinant human zinc insulin here?
**A.** 30 min

**Q.** What about the Glucose ([1]; time 0, study mean, 0.05 mg/kg) of the same substance?
**A.** 83 mg/dL and 73 mg/dL and 60 mg/dL and 68 mg/dL and 65 mg/dL and 70 mg/dL

**Q.** What about the Glucose ([1]; time 15, study mean, 0.05 mg/kg) of the same substance?
**A.** 66 mg/dL and 42 mg/dL and 40 mg/dL and 45 mg/dL and 59 mg/dL

**Q.** And the Glucose ([1]; time 30, study mean, 0.05 mg/kg)?
**A.** 60 mg/dL and 59 mg/dL and 38 mg/dL and 39 mg/dL and 64 mg/dL

**Q.** And the Glucose ([1]; time 45, study mean, 0.05 mg/kg)?
**A.** 61 mg/dL and 64 mg/dL and 42 mg/dL and 36 mg/dL and 40 mg/dL and 69 mg/dL

**Q.** What about the Insulin ([1]; time 180, study mean) of the same substance?
**A.** 8.30 uU/ml

**Q.** And the “FPE (fH)” value ([2]; individual animals)?
**A.** 0.18

**Q.** What about the “AUC-IP, Average” value ([2]; portal administration, n = 5) of the same substance?
**A.** 9.65

**Q.** What about the “maximum absolute bioavailability from oral delivery (100% GI absorption into the portal vein)” value ([2]; rat model, from intraportal administration) of the same substance?
**A.** approximately 60%

**Q.** And the “AUC-JV, Average” value ([2]; systemic administration, n = 5)?
**A.** 15.53

**Q.** What about the stability of insulin ([3]; SIF in presence of the enzyme (pancreatin)) of the same substance?
**A.** degrades

**Q.** What about the stability of insulin ([3]; SIF without pancreatin) of the same substance?
**A.** stable

**Q.** What about the “Insulin % of theoretical” value ([3]; SIF, insulin with 4-CNAB and enzymes (pancreatin), 6 minutes) of the same substance?
**A.** 5.4%

**Q.** What about the “C0->∞/Dose, Average” value ([4]; IV, all doses (2.5, 8, 9 μg/kg)) of the same substance?
**A.** 0.0053 kg/mL

**Q.** What about the “AUC0->∞” value ([4]; IV, dose 8 μg/kg) of the same substance?
**A.** 99.35 ng·min/mL and 99.32 ng·min/mL and 103.4 ng·min/mL

**Q.** What about the C0 ([4]; IV, dose 8 μg/kg) of the same substance?
**A.** 50.67 ng/mL and 52.64 ng/mL and 49.63 ng/mL

**Q.** What about the “AUC0->∞, X ± SD” value ([4]; IV, dose 8 μg/kg, n = 3) of the same substance?
**A.** 100.7 ± 2.4 ng·min/mL

**Q.** What about the “AUC0->∞/Dose, X ± SD” value ([4]; IV, dose 8 μg/kg, n = 3) of the same substance?
**A.** 0.0126 ± 0.0003 kg·min/mL

**Q.** What about the “Vd, X ± SD” value ([4]; IV, dose 8 μg/kg, n = 3) of the same substance?
**A.** 157 ± 5 mL/kg

**Q.** And the “AUC0->∞” value ([4]; IV, dose 9 μg/kg)?
**A.** 99.55 ng·min/mL and 75.67 ng·min/mL and 122.89 ng·min/mL

**Q.** What about the C0 ([4]; IV, dose 9 μg/kg) of the same substance?
**A.** 46.79 ng/mL and 36.32 ng/mL and 55.30 ng/mL

**Q.** And the “AUC0->∞, X ± SD” value ([4]; IV, dose 9 μg/kg, n = 3)?
**A.** 99.4 ± 23.6 ng·min/mL

**Q.** What about the “AUC0->∞/Dose, X ± SD” value ([4]; IV, dose 9 μg/kg, n = 3) of the same substance?
**A.** 0.0110 ± 0.0026 kg·min/mL

**Q.** What about the “C0, X ± SD” value ([4]; IV, dose 9 μg/kg, n = 3) of the same substance?
**A.** 46.1 ± 9.5 ng/mL

**Q.** And the “Vd, X ± SD” value ([4]; IV, dose 9 μg/kg, n = 3)?
**A.** 201 ± 43 mL/kg

**Q.** What about the “kel, X ± SD” value ([4]; IV, dose 9 μg/kg, n = 3) of the same substance?
**A.** 0.47 ± 0.02 min⁻¹

**Q.** What about the “AUC0->∞/Dose, X ± SD” value ([4]; IV, dose […], n = 5) of the same substance?
**A.** 0.0062 ± 0.0011 kg·min/mL

**Q.** What about the “Vd, X ± SD” value ([4]; IV, dose […], n = 5) of the same substance?
**A.** 219 ± 68 mL/kg

**Q.** What about the “average insulin AUC0→∞/Dose” value ([4]; intravenous dosing) of the same substance?
**A.** 0.0093 kg·min/mL

**Q.** And the “absolute bioavailability from SC” value [5]?
**A.** approximately 56%

**Q.** What about the insulin degraded ([6]; SGF containing pepsin, first sampling point) of the same substance?
**A.** 97%

**Q.** What about the insulin remained ([6]; SGF containing pepsin, first sampling point (0 minutes), 37° C.) of the same substance?
**A.** 3.0%

**Q.** And the “time insulin is stable” value ([6]; SGF without pepsin)?
**A.** ≥ 2 h

**Q.** What about the “Insulin % of theoretical” value ([6]; insulin with 4-CNAB and enzymes (pepsin), 37° C., 0 minutes) of the same substance?
**A.** 3.0%

**Q.** What about the “Insulin % of theoretical” value ([6]; insulin with 4-CNAB and no enzymes, 24 h) of the same substance?
**A.** 0%

**Q.** And the “Insulin % of theoretical” value ([6]; insulin without 4-CNAB and with enzymes (pepsin), 37° C., 0 minutes)?
**A.** 3.0%

**Q.** What about the “Insulin % of theoretical” value ([6]; insulin without 4-CNAB and without enzymes, 24 h) of the same substance?
**A.** 0%
